Here are results for twelve molecules from paper PMC5693944, “Ml proteins from Mesorhizobium loti and MucR from Brucella abortus: an AT-rich core DNA-target site and oligomerization ability”.

The target of one data set is T1, Ml2 (Mesorhizobium loti, UniProt A0A1A5JHX8 1-141).
T1 sequence: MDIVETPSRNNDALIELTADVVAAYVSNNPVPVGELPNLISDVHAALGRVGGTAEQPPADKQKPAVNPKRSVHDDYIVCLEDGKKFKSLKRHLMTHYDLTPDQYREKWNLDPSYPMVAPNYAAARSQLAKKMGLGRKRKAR
In words: EMSA. Particulars: protein: recombinant; chain copies: 10. A general note: In EMSA bound probe runs differently from free probe, usually more slowly.

In another data set the target is MucR (Brucella abortus 2308, UniProt Q2YMR3 1-142). In words: EMSA. Particulars: protein: recombinant; chain copies: 10; blunt.

B1: Seq1.1 (dsDNA)
DNA 1: CCACGTCCCTAGTCGCGTCA
DNA 2: TGACGCGACTAGGGACGTGG
In the case of B1, the binding result in the data set with Ml2 and with MucR was “no binding” throughout.

B2: Core1 (dsDNA)
DNA 1: GGCGCCGAAATAGCGGAGCG
DNA 2: CGCTCCGCTATTTCGGCGCC
As for B2, in the data set with Ml2, the binding result was “binds”.

B3: Core5 (dsDNA)
DNA 1: GGCGCCGATATATCGGAGCG
DNA 2: CGCTCCGATATATCGGCGCC
With B3, the binding result with Ml2 is listed as “binds”.

B4: Core4mut (dsDNA)
DNA 1: GCGAAAAAAAAAATTTTGCC
DNA 2: GGCAAAATTTTTTTTTTCGC
Consider B4, for which the binding result with Ml2 is recorded as “no binding”.

B5: Core2mut (dsDNA)
DNA 1: GGCGCCGAAAAAACGGAGCG
DNA 2: CGCTCCGTTTTTTCGGCGCC
With B5, the binding result with Ml2 is “no binding”.

B6: Core4 (dsDNA)
DNA 1: GCGAAAAAAATAATTTTGCC
DNA 2: GGCAAAATTATTTTTTTCGC
As for B6, the binding result with Ml2 is listed as “binds”.

B7: Seq1.2 (dsDNA)
DNA 1: CCACTGACCGCGTCGCGTCA
DNA 2: TGACGCGACGCGGTCAGTGG
B7: the binding result with Ml2 and with MucR was “no binding” throughout.

B8: Core3 (dsDNA)
DNA 1: GGCGCCGAAATACCGGAGCG
DNA 2: CGCTCCGGTATTTCGGCGCC
On to B8, for which the binding result with Ml2 was “binds”.

B9: Seq3.1 (dsDNA)
DNA 1: ATTGACGCCCTAATAAGCTA
DNA 2: TAGCTTATTAGGGCGTCAAT
As for B9, the binding result with Ml2 and with MucR was “no binding” throughout.

B10: Core2 (dsDNA)
DNA 1: GGCGCCGAAATAACGGAGCG
DNA 2: CGCTCCGTTATTTCGGCGCC
Take B10: the binding result with Ml2 is “binds”.

B11: Exoy43bp (dsDNA)
DNA 1: CCACTGAAATAGTCGCGTCATGAATTGACTAAATAATAAGCTA
DNA 2: TAGCTTATTATTTAGTCAATTCATGACGCGACTATTTCAGTGG
In the case of B11, the binding result with Ml2 and with MucR was “binds” each time.

B12: Seq3.2 (dsDNA)
DNA 1: ATTGACTAAAGCCGAAGCTA
DNA 2: TAGCTTCGGCTTTAGTCAAT
Turning to B12, the binding result in the data set with Ml2 and with MucR was “no binding” in each case.
